Data taken from US20180355059A1 (PHARMAEXPLORER, published 2018).

How the values were obtained:
[1] = molecular target: T1, recombinant human PCSK9-His protein (Immunogen A) (human, UniProt Q8NBP7 31-692, limits assumed, biotinylated in the ELISA assays); test: BLI, Octet Red 96; antibody on AHC sensor
T1 construct: also called hPCSK9-His; His-tagged hPCSK9; not shown: His tag

[2] = molecular target: T1, recombinant human PCSK9-His protein …; test: SPR, Biacore T200; antibody captured by anti-human Fc
Method: Anti-human Fc IgG was immobilized on flow cells 1 and 2: HBS-EP+(10 mM HEPES, 150 mM NaCl, 3 mM EDTA, 0.05% P20, pH 7.4) was used as running buffer, and the immobilization of anti-human Fc IgG was carried out using the immobilization wizard template. Flow cells 1 and 2 of a Series S CM5 sensor chip were activated with freshly-mixed 50 mmol/L NHS and 200 mmol/L EDC. 20 ug/mL of anti-human Fc IgG diluted in 10 mM NaAC (pH 4.5) was injected into the activated flow cells 1 and 2. The remaining active coupling sites were blocked with 1M ethanolamine.
KD measurements were carried out with HBS-EP+ as the running buffer. Each antibody was injected over the CM5 sensor flow cell 2 with a flow rate of 10 uL/min to reach response 230 RU. […] Buffer flow was maintained for 400 seconds for dissociation measurements (30 uL/min). To remove the tested antibody from the surface, 10 mM glycine-HCl pH 1.5 was injected for 20 seconds (30 ulJmin). Flow cell 1 was used as reference flow cell. […] The KD value for each antibody was evaluated using Biacore T200 evaluation software 1.0, and the data was fit with a 1:1 binding model.

[3] = molecular target: T1, recombinant human PCSK9-His protein …; test: ELISA; antibody 0.00067 nM
[4] = molecular target: T1, recombinant human PCSK9-His protein …; test: ELISA; antibody 6.67 nM
[5] = molecular target: T1, recombinant human PCSK9-His protein …; test: ELISA; antibody 0.0067 nM
[6] = molecular target: T2, recombinant cyno monkey PCSK9 protein (cyno monkey, UniProt A8T666 31-692 (rhesus entry), limits assumed, biotinylated in the ELISA assays); test: ELISA; antibody 0 nM
T2 construct: also called cyno PCSK9; Cyno Monkey PCSK9-His
T2 sequence (A8T666 31-692 limits assumed): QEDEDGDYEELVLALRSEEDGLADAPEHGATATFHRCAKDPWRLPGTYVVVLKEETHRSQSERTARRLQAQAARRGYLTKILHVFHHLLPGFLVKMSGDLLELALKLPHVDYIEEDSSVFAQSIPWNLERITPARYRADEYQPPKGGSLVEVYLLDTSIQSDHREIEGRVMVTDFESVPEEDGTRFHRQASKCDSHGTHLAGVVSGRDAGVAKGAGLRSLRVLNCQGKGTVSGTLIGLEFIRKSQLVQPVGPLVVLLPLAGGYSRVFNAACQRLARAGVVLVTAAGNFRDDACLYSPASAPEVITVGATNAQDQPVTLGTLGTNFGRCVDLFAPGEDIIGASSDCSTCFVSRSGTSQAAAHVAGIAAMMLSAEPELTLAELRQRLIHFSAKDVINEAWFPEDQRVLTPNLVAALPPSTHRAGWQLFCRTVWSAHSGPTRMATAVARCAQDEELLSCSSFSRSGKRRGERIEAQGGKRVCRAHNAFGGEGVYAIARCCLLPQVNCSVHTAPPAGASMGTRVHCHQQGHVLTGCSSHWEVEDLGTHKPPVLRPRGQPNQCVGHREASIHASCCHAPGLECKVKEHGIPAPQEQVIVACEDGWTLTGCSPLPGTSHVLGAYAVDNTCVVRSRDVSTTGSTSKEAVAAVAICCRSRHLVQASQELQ

[7] = molecular target: T2, recombinant cyno monkey PCSK9 protein; test: ELISA; antibody 0.00067 nM
[8] = molecular target: T1, recombinant human PCSK9-His protein …; test: ELISA of PCSK9 binding to LDLR ECD; antibody 0.32 nM
[9] = molecular target: T2, recombinant cyno monkey PCSK9 protein; test: ELISA; antibody 0.067 nM
[10] = molecular target: T1, recombinant human PCSK9-His protein …; test: ELISA of PCSK9 binding to LDLR ECD; antibody 40 nM
[11] = molecular target: T1, recombinant human PCSK9-His protein …; test: ELISA; antibody 0.000067 nM
[12] = molecular target: T2, recombinant cyno monkey PCSK9 protein; test: ELISA; antibody 0.0067 nM
[13] = molecular target: T2, recombinant cyno monkey PCSK9 protein; test: ELISA; antibody 0.000067 nM
[14] = molecular target: T2, recombinant cyno monkey PCSK9 protein; test: ELISA; antibody 66.67 nM
[15] = molecular target: T1, recombinant human PCSK9-His protein …; test: ELISA; antibody 66.67 nM
[16] = molecular target: T1, recombinant human PCSK9-His protein …; test: ELISA of PCSK9 binding to LDLR ECD; antibody 0 nM
[17] = molecular target: T1, recombinant human PCSK9-His protein …; test: ELISA of PCSK9 binding to LDLR ECD; antibody 1.6 nM
[18] = molecular target: T2, recombinant cyno monkey PCSK9 protein; test: ELISA; antibody 0.67 nM
[19] = molecular target: T1, recombinant human PCSK9-His protein …; test: ELISA of PCSK9 binding to LDLR ECD; antibody 200 nM
[20] = molecular target: T2, recombinant cyno monkey PCSK9 protein; test: ELISA; antibody 6.67 nM
[21] = molecular target: T1, recombinant human PCSK9-His protein …; test: ELISA; antibody 0 nM
[22] = molecular target: T1, recombinant human PCSK9-His protein …; test: ELISA; antibody 0.67 nM
[23] = molecular target: T1, recombinant human PCSK9-His protein …; test: ELISA of PCSK9 binding to LDLR ECD; antibody 0.01 nM
[24] = molecular target: T1, recombinant human PCSK9-His protein …; test: ELISA; antibody 0.067 nM
[25] = molecular target: T1, recombinant human PCSK9-His protein …; test: ELISA of PCSK9 binding to LDLR ECD; antibody 0.06 nM

B1: 103C11E8, fully human anti-PCSK9 antibody (antibody, human IgG1, V domains shown)
VH: QVQLQESGPGLVKPSGTLSLTCAVSGGSISSSNWWSWVRQPPGKGLEWIGEIYHSGSTNYNPSLKSRVTISVDKSKNQFSLKLSSVTAADTAVYYCARGIAVAGTDVMDAWGQGASVTVSS
VL: EIVLTQSPATLSLSPGERATLSCRASQSVSSYLVWYQQKSGQAPRLLIYGTSNRATGIPARFSGSGSGTDFTLTISSLEPEDFALYYCQQRGNWMYTFGQGTKLEIK
Kd [1]: 2.17 nM
Kd [2]: 1.42 nM

B2: 76A1B11, fully human anti-PCSK9 antibody (antibody, human IgG1, V domains shown)
VH: QVQLVESGGGVVQPGRSLRLSCAATGFTFSIYGMHWVRQAPGKGLEWVAVIWYDGSNKYYADSVKGRFIISRDNSKNTLYLQMNSLRVEDTAVYYCVSDYFGSGNSYYYYGMDVWGQGTTVTVSS
VL: DIQMTQSPSSLSASVGDRVTITCRASQVISNYLAWYQQKPGKVPKLLIYTASTLQSGVPSRFSGSGSGADFTLTISSLQPEDVATYYCQKYNSAPYTFGQGTKLEIK
OD450 nm [3]: 0.07 OD450 nm
OD450 nm [4]: 2.97 OD450 nm
Kd [1]: 12.1 nM
koff [1]: 0.000643 s⁻¹
kon [1]: 53100 M⁻¹ s⁻¹
OD450 nm [5]: 0.14 OD450 nm
OD450 nm [6]: 0.07 OD450 nm
OD450 nm [7]: 0.08 OD450 nm
OD450 nm [8]: 2.31 OD450 nm
OD450 nm [9]: 1.46 OD450 nm
OD450 nm [10]: 1.35 OD450 nm
OD450 nm [11]: 0.06 OD450 nm
OD450 nm [12]: 0.24 OD450 nm
OD450 nm [13]: 0.11 OD450 nm
OD450 nm [14]: 3 OD450 nm
OD450 nm [15]: 2.97 OD450 nm
OD450 nm [16]: 2.38 OD450 nm
OD450 nm [17]: 2.19 OD450 nm
OD450 nm [18]: 2.91 OD450 nm
OD450 nm [19]: 1.27 OD450 nm
OD450 nm [20]: 3 OD450 nm
OD450 nm [21]: 0.06 OD450 nm
OD450 nm [22]: 2.77 OD450 nm
OD450 nm [23]: 2.26 OD450 nm
OD450 nm [24]: 0.8 OD450 nm
OD450 nm [25]: 2.28 OD450 nm
